Here are results for 21 variants from the RNAGym collection of RNA variant scans (doi:10.1073/pnas.2313332121).

B1: TPR t1 (parent)
chain: GACCAAUCUGCCCUCAGAGCUCGAGAACAUCUUCGGAUGCAGAGGAGGCAGGCUUCGGUGGCGCGAUAGCGCCAACGUCCUCAACCUCCAAUGCAUCCCACCACAUGAUGAUGCCUGAAGAGCCUUGGUUUUUUG

In this data set the parent is B1. Put plainly: polymerase ribozyme fitness, log enrichment relative to wild type (log ratio); higher = more active; in vitro selection for triplet polymerase activity. An outline of the steps:
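Each subunit of a heterodimeric triplet polymerase ribozyme was mutagenized into a library by PCR, transcribed, and subjected to one round of in vitro selection, run in triplicate. Libraries were annealed with a biotinylated primer, the partner subunit and triplets, incubated frozen at −7 °C, and extended constructs were gel-excised, captured on streptavidin beads and recovered by RT-PCR. Input and output libraries were sequenced on Illumina, keeping genotypes with ≥10 input reads and ≥1 read per output. Fitness is log base 2 of genotype enrichment divided by wild-type enrichment, from inverse-variance-weighted replicate averages.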
With GACCAAUCUGCCCUCAGAGCUCGAGAACAUCUUCGGAUGCAGAGGAGGCAGGCUUCAGUAGCGCGAUAGCGCCAACGUCCUCAACCUCCAAUGCAUCCCACCACAUGAUGAUGCCUGAAGAGCCUUGGUUUUUUG [G57A G60A], the “polymerase ribozyme fitness (log ratio)” value was -0.384.
GACCAAUCUGCCCUCAGAGCUCGAGAACAUCUUCGGAUGCAGAGGAGGCAGGCUUCAGUGGCGCGAUAGCGCCAUCGUCCUCAACCUCCAAUGCACCCCACCACAUGAUGAUGCCUGAAGAGCCUUGGUUCUUUG [G57A A75U U96C U131C]: the “polymerase ribozyme fitness (log ratio)” value was -1.53.
Turning to GACCAAUCUGCCCUCAGAGCUCGAGAACAUCUUCGGAUGCAGAGGAGGCAGGCUUCAGUGGCGCGAUAGCGCCAACGUCCUCAACCUCCAAUGCAUCCCACCAAAUGAUGAUGCCUGAAGAGCCUUGGUUUUUUG [G57A C104A], the “polymerase ribozyme fitness (log ratio)” value is -2.92.
The figure for GACCAAUCUGCCCUCAGAGCUCGAGAACAUCUUCGGAUGCAGAGGAGGCAGGCUUCAGUGGCGCGAUAGCGCCAACGUCCUCAACCUCCAAUGCAUCCCACCAUAUGAUGAUGCCUGAAGAGCCUUGGUUUUUUG [G57A C104U] is -0.961; for GACCAAUCUGCCCUCAGAGCUCGAGAACAUCUUCGGAUGCAGAGGAGGCAGGCUUUGGUGGCGCGAUAGCGCCAACGUCCUCAACCUCCAAUGCAUCCCACCACAUGAUGAUGCCUGAAGAGCCUUGGAUUUUUG [C56U U129A] it is -1.15.
Take GACCAAUCUGCCCUCAGAGCUCGAGAACAUCUUCGGAUGCAGAGGAGGCAGGCUUUGGUGGCGCGAUAGCGCCAACGUCCUCAACCUCCAAUGCAUCCCACCACAUGAUGAUGCCUGAAGAGCCUUGGUUGUUUG [C56U U131G]: the “polymerase ribozyme fitness (log ratio)” value was 0.127.
As for GACCAAUCUGCCCUCAGAGCUCGAGAACAUCUUCGGAUGCAGAGGAGGCAGGCUUUGGUGGCGCGAUAGCGCCAACGUCCUCAACCUCCAAUGCAUCCCACCACAUGAUGAUGCCUGAAGAGCCUUGGUCUUUUG [C56U U130C], the “polymerase ribozyme fitness (log ratio)” value came out at 1.02.
In the case of GACCAAUCUGCCCUCAGAGCUCGAGAACAUCUUCGGAUGCAGAGGAGGCAGGCUUUGGUGGCGCGAUAGCGCCAACGUCCUCAACCUCCAAUGCAUCCCACCACAUGAUGAUGCCUGAAGAGCCUUGGUAUUUUG [C56U U130A], the “polymerase ribozyme fitness (log ratio)” value turned out to be 0.174.
On to GACCAAUCUGCCCUCAGAGCUCGAGAACAUCUUCGGAUGCAGAGGAGGCAGGCUUCAGUGACGCGAUAGCGCCAACGUCCUCAACCUCCAAUGCAUCCCACCAUAUGAUGAUGCCUGAAGAGCCUUGGUUUUUUG [G57A G61A C104U], for which the “polymerase ribozyme fitness (log ratio)” value was -0.114.
The figure for GACCAAUCUGCCCUCAGAGCUCGAGAACAUCUUCGGAUGCAGAGGAGGCAGGCUUCAGUGGCGCGAUAGCGCCAACCUCCUCAACCUCCAAUGCAUCCCACCACAUGAUGAUGCCUGAAGAGCCUUGGUUUUUUG [G57A G77C] is -2.28.
Regarding GACCAAUCUGCCCUCAGAGCUCGAGAACAUCUUCGGAUGCAGAGGAGGCAGGCUUCAGUGGCGCGAUAGCGCCAACGUCCUCAACCUCCAAUGCAUCCCACCGCAUGAUGAUGCCUGAAGAGCCUUGGUUUUUUG [G57A A103G], the “polymerase ribozyme fitness (log ratio)” value was -4.05.
As to GACCAAUCUGCCCUCAGAGCUCGAGAACAUCUUCGGAUGCAGAGGAGGCAGGCUUCAGUGGCGCGAUAGCGCCAACGUCCUCAACCUCCAAUGCCUCCCACCACAUGAUGAUGCCUGAAGAGCCUUGGUUUUUUG [G57A A95C], the “polymerase ribozyme fitness (log ratio)” value is -1.81.
The same measure for GACCAAUCUGCCCUCAGAGCUCGAGAACAUCUUCGGAUGCAGAGGAGGCAGGCUUCAGUGGCGCGAUAUCGCCAACGUCCUCAACCUCCAAUGCAUCCCACCACAUGAUGAUGCCUGAAGAGCCUUGGUUUUUUG [G57A G69U]: -0.426; for GACCAAUCUGCCCUCAGAGCUCGAGAACAUCUUCGGAUGCAGAGGAGGCAGGCUUUGGUGGCGCGAUAGCGCCAACGUCCUCAACCUCCAAUGCAUCCCACCACAUGAUGAUGCCUGAAGAGCCUUGGUUUUAUG [C56U U133A]: -0.575; for GACCAAUCUGCCCUCAGAGCUCGAGAACAUCUUCGGAUGCAGAGGAGGCAGGCUUCAGUGGCGCGAUAGCGCCAACGUCCUCACCCUCCAAUGCAUCCCACCACAUGAUGAUGCCUGAAGAGCCUUGGUUUUUUG [G57A A84C]: -1.76.
The same measure for GACCAAUCUGCCCUCAGAGCUCGAGAACAUCUUCGGAUGCAGAGGAGGCAGGCUUCAGUGGCGCGAUAGCGCCAACGUCCUCAACCUCCAAUGCAUCCCACCACAUGAUGAUGCCUGAAGACACUUGGUCUUUUG [G57A G122C C123A U130C]: -1.47.
The figure for GACCAAUCUGCCCUCAGAGCUCGAGAACAUCUUCGGAUGCAGAGGAGGCAGGCUUCAGCGGCGCGAUAGCGCCAACGUCCUCAACCUCCAAUGCAUCCCACCACAUGAUGAUGCCUGAACAGCCUUGGUUUAUUG [G57A U59C G120C U132A] is -0.265; for GACCAAUCUGCCCUCAGAGCUCGAGAACAUCUUCGGAUGCAGAGGAGGCAGGCUUCAGUGGCGCGAUAGCGCGAACGUCCUCAACCGCCAAUGCAUCCCACCACAUGAUGAUGCCUGAAGAGCCAUGGUUUUUUG [G57A C73G U87G U125A] it is -1.37; for GACCAAUCUGCCCUCAGAGCUCGAGAACAUCUUCGGAUGCAGAGGAGGCAGGCUUCAGUGGCGCGAUAGCGCCAACGUCCUCAACCUCCAAUGCAUCCUACCACAUGAUGAUGCCUGAAGAGCCUUGGUUUUUUG [G57A C99U] it is -4.88.
For the variant GACCAAUCUGCCCUCAGAGCUCGAGAACAUCUUCGGAUGCAGAGGAGGCAGGCUUCAGUGGCGCGAUAGCGCCAACGUCCUCAACCUCCAAUGCAUCCCACCACAUGAUGAUGCGUGAAGAGCCUUGGUUUUUUG [G57A C115G], the “polymerase ribozyme fitness (log ratio)” value was -2.25.
Consider GACCAAUCUGCCCUCAGAGCUCGAGAACAUCUUCGGAUGCAGAGGAGGCAGGCUUCAGUGGCACGAUAGCGCCAACGUCCUCAACCUCCAAUGCAUCCCACCACAUGAUGAUGCCUGAAGAGCCUUGGUUUUUUG [G57A G63A], for which the “polymerase ribozyme fitness (log ratio)” value is -2.04.
